# Tests used:
# [1] = molecular target: human CD11b I-domain (human); test: SPR
# [2] = molecular target: murine CD11b I-domain (mouse); test: SPR
# Chain of murine CD11b I-domain (mouse) (P05555 17-1153): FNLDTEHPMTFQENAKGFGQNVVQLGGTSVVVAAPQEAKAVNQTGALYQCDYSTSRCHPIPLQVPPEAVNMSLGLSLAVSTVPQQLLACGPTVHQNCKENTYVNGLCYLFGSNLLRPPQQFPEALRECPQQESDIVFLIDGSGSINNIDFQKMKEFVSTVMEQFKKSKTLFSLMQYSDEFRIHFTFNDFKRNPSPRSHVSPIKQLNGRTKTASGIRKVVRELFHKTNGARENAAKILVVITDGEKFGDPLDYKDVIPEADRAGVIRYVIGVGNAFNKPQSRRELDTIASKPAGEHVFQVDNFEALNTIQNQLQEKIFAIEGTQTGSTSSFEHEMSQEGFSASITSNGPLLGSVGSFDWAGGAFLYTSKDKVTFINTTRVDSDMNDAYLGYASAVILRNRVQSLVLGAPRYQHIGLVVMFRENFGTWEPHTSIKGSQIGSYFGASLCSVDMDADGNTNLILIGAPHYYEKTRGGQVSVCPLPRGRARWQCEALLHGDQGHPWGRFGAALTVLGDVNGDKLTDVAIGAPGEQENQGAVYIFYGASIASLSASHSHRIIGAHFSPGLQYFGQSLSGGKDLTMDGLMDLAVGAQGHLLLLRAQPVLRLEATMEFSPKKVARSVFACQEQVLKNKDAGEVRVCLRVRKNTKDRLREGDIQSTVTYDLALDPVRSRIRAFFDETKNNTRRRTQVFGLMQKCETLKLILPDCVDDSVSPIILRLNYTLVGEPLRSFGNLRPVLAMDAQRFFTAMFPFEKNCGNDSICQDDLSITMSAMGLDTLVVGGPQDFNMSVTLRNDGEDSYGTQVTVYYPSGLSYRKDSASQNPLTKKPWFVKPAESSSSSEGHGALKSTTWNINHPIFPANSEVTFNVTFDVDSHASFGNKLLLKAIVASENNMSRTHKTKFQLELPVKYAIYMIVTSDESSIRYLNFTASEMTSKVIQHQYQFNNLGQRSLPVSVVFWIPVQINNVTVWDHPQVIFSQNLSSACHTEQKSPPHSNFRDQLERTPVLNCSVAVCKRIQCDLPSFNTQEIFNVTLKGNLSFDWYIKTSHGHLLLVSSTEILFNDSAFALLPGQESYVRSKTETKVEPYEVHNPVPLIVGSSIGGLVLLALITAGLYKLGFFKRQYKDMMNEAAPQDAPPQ
substance,measurement,setting,value
LukAB (complex),Kd,[1],39.3 nM
same,Kd,[2],247 µM

# Reference: PMC7065885
